Experimental data taken from US20110300138A1 (published 2011).

B1: K1-70 IgG (antibody, V domains shown)
VH: EVQLVQSGAEVKKPGQSLKISCKASGYSLTDNWIGWVRQKPGKGLEWMGIIYPGDSDTRYSPSFQGQVTISADKSINTAYLQWSSLKASDTAIYYCVGLDWNYNPLRYWGPGTLVTVSS
VL: QSVLTQPPSVSAAPGQKVTISCSGSSSDIGSNYVSWYQQFPGTAPKLLIYDNNKRPSAIPDRFSGSKSGTSATLGITGLQTGDEADYYCGTWDSRLGIAVFGGGTQLTVLG
notes: Human IgG1 lambda purified from hetero-hybridoma supernatant; also called human monoclonal autoantibody to the TSHR with TSH antagonist activity
B2: K1-70 Fab (Fab, V domains shown)
VH: B1 VH
VL: B1 VL
B3: K1-18 IgG (antibody, V domains shown)
VH: EVQLVQSGAEVKKPGESLKISCKGSGYSFTNYWIGWVRQMPGKGLEWMGIIYPYDSDTRYSPSFEGQVTISADKSIRTAYLHWSSLKASDTAMYYCVRPRDGSYPYDAFDIWGQGTMVTVSS
VL: EIVLTQSPGTLSLSPGERATLSCRASQSVSNNYLAWYQQKPGQAPRLLIYGASSRATGIPDRFSGSGSGTDFTLTISRLEPEDFAVYYCQHCGSSLRAFGQGTKVEIKR
notes: Human IgG1 kappa purified from hetero-hybridoma supernatant; also called human monoclonal autoantibody to the TSHR with TSH agonist activity
B4: K1-18 Fab (Fab, V domains shown)
VH: B3 VH
VL: B3 VL

molecular target: T1, human TSH receptor (full length), coated on tubes (human, UniProt P16473 22-764); experiment: inhibition of 125I-K1-70 Fab (competitor) binding to TSHR coated tubes; 0.3 µg/mL in HBD serum pool
T1 construct: TSHR coated tubes as described in WO2004/050708A2; The receptor is full length and held on plastic tubes through a mouse MAb to the TSHR; also called thyroid stimulating hormone receptor
Method: (§1) Binding inhibition assays were carried out using TSHR coated tubes as described in WO2004/050708A2. […] After aspiration, the tubes were washed and 100 μL of ¹²⁵I-labelled protein (5×10⁴ cpm) added and incubated for 1 hour at room temperature with shaking. The tubes were then aspirated, washed and counted in a gamma counter. Inhibition of labelled protein binding was calculated as 100×[1−(cpm bound in the presence of test material/cpm bound in the presence of control material)].

Binder | Inhibition of binding (%)
B1 | 97
B2 | 91.4
B3 | 77.7
B4 | 63.9

molecular target: T1, human TSH receptor (full length), …; experiment: inhibition of 125I-K1-70 Fab (competitor) binding to TSHR coated tubes; 0.03 µg/mL in assay buffer
Method: as §1

Binder | Inhibition of binding (%)
B1 | 89
B2 | 89
B3 | 63.1
B4 | 38.8

molecular target: T1, human TSH receptor (full length), …; experiment: inhibition of 125I-K1-70 Fab (competitor) binding to TSHR coated tubes; 0.01 µg/mL in HBD serum pool
Method: as §1

Binder | Inhibition of binding (%)
B1 | 10.6
B2 | 25.3
B3 | 2.2
B4 | -0.8

molecular target: T1, human TSH receptor (full length), …; experiment: inhibition of 125I-K1-70 Fab (competitor) binding to TSHR coated tubes; 30 µg/mL in assay buffer
Method: as §1

Binder | Inhibition of binding (%)
B1 | 97.7
B2 | 95.1
B3 | 94.5
B4 | 83.2

molecular target: T1, human TSH receptor (full length), …; experiment: inhibition of 125I-K1-70 Fab (competitor) binding to TSHR coated tubes; 0.1 µg/mL in HBD serum pool
Method: as §1

Binder | Inhibition of binding (%)
B1 | 66.5
B2 | 81.9
B3 | 51
B4 | 36.9

molecular target: T1, human TSH receptor (full length), …; experiment: inhibition of 125I-K1-70 Fab (competitor) binding to TSHR coated tubes; 0.03 µg/mL in HBD serum pool
Method: as §1

Binder | Inhibition of binding (%)
B1 | 37.8
B2 | 57.2
B3 | 17.2
B4 | 7.9

molecular target: T1, human TSH receptor (full length), …; experiment: inhibition of 125I-K1-70 Fab (competitor) binding to TSHR coated tubes; 1 µg/mL in HBD serum pool
Method: as §1

Binder | Inhibition of binding (%)
B1 | 94.1
B2 | 94.2
B3 | 89.4
B4 | 78.7

molecular target: T1, human TSH receptor (full length), …; experiment: inhibition of 125I-K1-70 Fab (competitor) binding to TSHR coated tubes; 100 µg/mL in HBD serum pool
Method: as §1

Binder | Inhibition of binding (%)
B1 | 97.7
B2 | 96.3
B3 | 96
B4 | 85.7

molecular target: T1, human TSH receptor (full length), …; experiment: inhibition of 125I-K1-70 Fab (competitor) binding to TSHR coated tubes; 0.01 µg/mL in assay buffer
Method: as §1

Binder | Inhibition of binding (%)
B1 | 66.2
B2 | 75.6
B3 | 30.3
B4 | 16.7

molecular target: T1, human TSH receptor (full length), …; experiment: inhibition of 125I-K1-70 Fab (competitor) binding to TSHR coated tubes; 0.001 µg/mL in assay buffer
Method: as §1

Binder | Inhibition of binding (%)
B1 | 5.5
B2 | 11.9
B3 | 5.9
B4 | 3.8

molecular target: T1, human TSH receptor (full length), …; experiment: inhibition of 125I-K1-70 Fab (competitor) binding to TSHR coated tubes; 0.3 µg/mL in assay buffer
Method: as §1

Binder | Inhibition of binding (%)
B1 | 94.2
B2 | 92.7
B3 | 92.6
B4 | 75.9

molecular target: T1, human TSH receptor (full length), …; experiment: inhibition of 125I-K1-70 Fab (competitor) binding to TSHR coated tubes; 0.1 µg/mL in assay buffer
Method: as §1

Binder | Inhibition of binding (%)
B1 | 93.5
B2 | 92.2
B3 | 83.6
B4 | 62.9

molecular target: T1, human TSH receptor (full length), …; experiment: inhibition of 125I-K1-70 Fab (competitor) binding to TSHR coated tubes; 0.003 µg/mL in assay buffer
Method: as §1

Binder | Inhibition of binding (%)
B1 | 27.7
B2 | 40
B3 | 11.4
B4 | 5

molecular target: T1, human TSH receptor (full length), …; experiment: inhibition of 125I-K1-70 Fab (competitor) binding to TSHR coated tubes; 10 µg/mL in HBD serum pool
Method: as §1

Binder | Inhibition of binding (%)
B1 | 96.6
B2 | 94.8
B3 | 94.8
B4 | 83.2

molecular target: T1, human TSH receptor (full length), …; experiment: inhibition of 125I-K1-70 Fab (competitor) binding to TSHR coated tubes; 10 µg/mL in assay buffer
Method: as §1

Binder | Inhibition of binding (%)
B1 | 96.9
B2 | 93.6
B3 | 94
B4 | 80.8

molecular target: T1, human TSH receptor (full length), …; experiment: inhibition of 125I-K1-70 Fab (competitor) binding to TSHR coated tubes; 1 µg/mL in assay buffer
Method: as §1

Binder | Inhibition of binding (%)
B1 | 95.2
B2 | 93.5
B3 | 93.1
B4 | 79

molecular target: T1, human TSH receptor (full length), …; experiment: inhibition of 125I-K1-70 Fab (competitor) binding to TSHR coated tubes; 0.003 µg/mL in HBD serum pool
Method: as §1

Binder | Inhibition of binding (%)
B1 | -0.8
B2 | 2.5
B3 | -9.4
B4 | -9.6

molecular target: T1, human TSH receptor (full length), …; experiment: inhibition of 125I-K1-70 Fab (competitor) binding to TSHR coated tubes; 3 µg/mL in assay buffer
Method: as §1

Binder | Inhibition of binding (%)
B1 | 95.5
B2 | 93.5
B3 | 93.3
B4 | 80.6

molecular target: T1, human TSH receptor (full length), …; experiment: inhibition of 125I-K1-70 Fab (competitor) binding to TSHR coated tubes; 100 µg/mL in assay buffer
Method: as §1

Binder | Inhibition of binding (%)
B1 | 97.7
B2 | 96.7
B3 | 95.3
B4 | 86.4

molecular target: T1, human TSH receptor (full length), …; experiment: inhibition of 125I-K1-70 Fab (competitor) binding to TSHR coated tubes; 0.001 µg/mL in HBD serum pool
Method: as §1

Binder | Inhibition of binding (%)
B1 | -8.8
B2 | -2.5
B3 | -6.8
B4 | -8.2

molecular target: T1, human TSH receptor (full length), …; experiment: inhibition of 125I-K1-70 Fab (competitor) binding to TSHR coated tubes; 3 µg/mL in HBD serum pool
Method: as §1

Binder | Inhibition of binding (%)
B1 | 96.2
B2 | 94.9
B3 | 93
B4 | 82.6

molecular target: T1, human TSH receptor (full length), …; experiment: inhibition of 125I-K1-70 Fab (competitor) binding to TSHR coated tubes; 30 µg/mL in HBD serum pool
Method: as §1

Binder | Inhibition of binding (%)
B1 | 97.4
B2 | 95.7
B3 | 95.6
B4 | 85.4
